From patent publication US20040156847A1

Target: human CD30 expressed on human peripheral blood eosinophils (human) (UniProt P28908)
Assay: cell-based or functional assay

Sequence of UniProt P28908 (P28908 19-595): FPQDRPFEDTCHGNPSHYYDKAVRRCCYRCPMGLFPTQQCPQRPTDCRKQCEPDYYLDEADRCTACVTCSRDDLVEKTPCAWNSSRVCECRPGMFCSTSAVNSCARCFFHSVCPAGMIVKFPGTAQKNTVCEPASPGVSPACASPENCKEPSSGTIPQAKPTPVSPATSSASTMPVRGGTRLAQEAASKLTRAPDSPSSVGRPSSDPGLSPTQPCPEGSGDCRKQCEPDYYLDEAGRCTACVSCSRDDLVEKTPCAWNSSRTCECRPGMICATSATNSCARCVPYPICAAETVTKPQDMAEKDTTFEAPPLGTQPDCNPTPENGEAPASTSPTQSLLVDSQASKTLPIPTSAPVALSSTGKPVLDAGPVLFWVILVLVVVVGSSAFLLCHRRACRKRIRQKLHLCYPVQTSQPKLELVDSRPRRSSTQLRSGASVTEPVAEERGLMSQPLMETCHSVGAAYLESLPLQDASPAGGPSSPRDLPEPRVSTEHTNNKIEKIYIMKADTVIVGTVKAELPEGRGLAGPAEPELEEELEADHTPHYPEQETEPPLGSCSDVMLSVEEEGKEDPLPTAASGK

| Substance | apoptosis of human peripheral blood eosinophils after 4 hours, antibody immobilized at 10 µg/ml [%] | apoptosis of human peripheral blood eosinophils (FITC-Annexin V, flow cytometry), antibody immobilized at 0.01 µg/ml, 4 hours [%] | apoptosis of human peripheral blood eosinophils (FITC-Annexin V, flow cytometry), antibody immobilized at 0.1 µg/ml, 4 hours [%] | apoptosis of human peripheral blood eosinophils (FITC-Annexin V, flow cytometry), antibody immobilized at 1 µg/ml, 4 hours [%] | apoptosis of human peripheral blood eosinophils (FITC-Annexin V, flow cytometry), antibody immobilized at 10 µg/ml, 4 hours [%] | apoptosis of human peripheral blood eosinophils after 1 hour, antibody immobilized at 10 µg/ml [%] | apoptosis of human peripheral blood eosinophils after 1 hour, antibody immobilized at 10 µg/ml (comparison with anti-Fas CH-11) [%] | apoptosis of human peripheral blood eosinophils after 4 hours, antibody immobilized at 10 µg/ml (comparison with anti-Fas CH-11) [%] | apoptosis of human peripheral blood eosinophils after 4 hours, antibody immobilized on polystyrene microbeads [%] | apoptosis of human peripheral blood eosinophils after 4 hours, ligand immobilized at 10 µg/ml [%] | apoptosis of human peripheral blood eosinophils after 4 hours, ligand immobilized at 100 µg/ml [%] |
| --- | --- | --- | --- | --- | --- | --- | --- | --- | --- | --- | --- |
| anti-mouse CD30 monoclonal antibody YMSM636.4.10 (Serotec Ltd, Oxford UK) | 30 | – | – | – | – | – | – | – | – | – | – |
| mouse anti-human CD30 monoclonal antibody Ber-H8 (PharMingen, San Diego, Calif.) | 70 | 7.8 | 11.4 | 44.8 | 71.9 | 50 | 50 | 70 | 44 | – | – |
| mouse anti-human CD30 monoclonal antibody HRS-4 (Immunotech, Marseilles, France) | 70 | – | – | 16.3 | 78.8 | 50 | 50 | 70 | 27.9 | – | – |
| recombinant mouse CD30 ligand (R&D Systems Inc. Minneapolis, USA) (from UniProt P32972 68-239) | – | – | – | – | – | – | – | – | – | 28 | 35 |
